# Laboratory results as given in publication PMC12905498 (2026).
# T1: Plasmodium berghei HAP2 domain 3 (P. berghei)
# T1 chain: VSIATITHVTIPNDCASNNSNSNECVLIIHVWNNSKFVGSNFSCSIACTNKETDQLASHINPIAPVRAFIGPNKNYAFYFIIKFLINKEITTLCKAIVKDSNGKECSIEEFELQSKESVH
# T2: Plasmodium vivax HAP2 domain 3 (P. vivax)
# T2 chain: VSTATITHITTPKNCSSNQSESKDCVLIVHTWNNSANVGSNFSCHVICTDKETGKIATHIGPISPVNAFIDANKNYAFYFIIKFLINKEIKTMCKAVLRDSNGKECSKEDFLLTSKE
# T3: Plasmodium falciparum HAP2 domain 3 (PfHAP2 D3 HisAvi), deglycosylated (P. falciparum, deglycosylated with PNGase F)
# T3 chain: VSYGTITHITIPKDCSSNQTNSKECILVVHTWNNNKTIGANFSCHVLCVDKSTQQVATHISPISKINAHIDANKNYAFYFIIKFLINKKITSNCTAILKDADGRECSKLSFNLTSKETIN
# Tests used:
# [1] = target: T1, Plasmodium berghei HAP2 domain 3; assay: BLI
# [2] = target: T2, Plasmodium vivax HAP2 domain 3; assay: BLI
# [3] = target: T3, Plasmodium falciparum HAP2 domain 3 …; assay: BLI
# [4] = target: T3, Plasmodium falciparum HAP2 domain 3 …; assay: BLI; single experiment
Binder,Kd [1] [nM],Kd [2] [nM],Kd [3] [nM],Kd [4] [nM]
WNbFc 333 (nanobody WNb 333 fused to hinge and Fc of human IgG1) (Fc fusion) QVQLQESGGGSVQPGGSLRLSCAASGFTLEDYAIGWFRQAPGKGREGISCISSTDGSTHYADSAKGRFTISRDDAKNTAYLQMNSLKVEDTDVYYCAALSQEHMITVQRMCAVPAAHYWGRGTQVTVSS,3650,2250,10.5,9.5
"anti-PbHAP2 D3 mAb 1.12 (variable regions in AbVec-hIgG1 and AbVec-IgKappa) (antibody, V domains shown) VH: EFQLLQSGPELVKPGASVKISCKASDYSLSDYNMNWVRQRSGKSLEWIGVINPNHGTTHYNQKFKGKATLTVDQSSSTAYMQLTSLTSEDSAVYYCASPIHYGNHVPFDYWGQGTTVTVSS VL: DIQMTQTTSSLSASLGDRVTISCRTGQDISNYLNWYQQKPDGTVKLLIYFTSRLHSGVPSRFSGSGSGTDYSLTISNLEQEDIATYFCQQGITLPWTFGGGTKLEIK",5.1,,,
WNbFc 334 (nanobody WNb 334 fused to hinge and Fc of human IgG1) (Fc fusion) QVQLQESGGGLVQPGGSLRLSCAASGFTLDDYAIGWFRQDPGKGREGVSCISLSDGSTYYADAVTGRFTISRDNAKDTVYLQMNSLKPEDTAVYYCAALSQKQMTTVQAMCAVPIANYWGQGTQVTVSS,1440,,22.2,19.7
WNbFc 335 (nanobody WNb 335 fused to hinge and Fc of human IgG1) (Fc fusion) QVQLQESGGGLVQPGGSLRLSCEASASGTIVALGTMAWYRQAPGNQRELVATITEESSTYYADSVKGRCTISRDNARNTMYLRLNSLKPEDTAVYYCNLANFWGQGTQVTVSS,,,38.8,35.2
"anti-PbHAP2 D3 mAb 6.14 (variable regions in AbVec-hIgG1 and AbVec-IgKappa) (antibody, V domains shown) VH: EVQLVESGGGLVKPGGSLKLSCAASEFTFSDYGMHWVRQAPEKGLEWVASISSGSNSIYYSDTVKGRFTISRDNAKSILFLQMTSLRSEDTAMYYCSREAYFAMDYWGQGTSVTVSS VL: DIQMTQSPSSLSAILGGKVTITCKASQDIHKYIAWYQHKPGKGPRLLIYYTSTLQPGIPSRFSGSGSGRDYSFSISNLEPEDVATYFCLQYDNLYTFGGGTKVEIE",12.1,,,
